Patent US20240287154A1, “MC3R AGONIST PEPTIDES” (The Regents of the University of Michigan, priority 2021, published 2024)
Non-standard residues stand in square brackets, D forms with d. Phe(4-I) = N[C@@H](Cc1ccc(I)cc1)C(=O)O; NMeY = CN[C@@H](Cc1ccc(O)cc1)C(=O)O; Nle = CCCC[C@H](N)C(=O)O; dAbu = CC[C@@H](N)C(=O)O; Aib = CC(C)(N)C(=O)O

B1: CTX-1108 (peptide)
peptide: H-YV[Nle][dA]HFR[dW]D-NH2
SMILES: CCCC[C@H](NC(=O)[C@@H](NC(=O)[C@@H](N)Cc1ccc(O)cc1)C(C)C)C(=O)N[C@H](C)C(=O)N[C@@H](Cc1c[nH]cn1)C(=O)N[C@@H](Cc1ccccc1)C(=O)N[C@@H](CCCNC(=N)N)C(=O)N[C@H](Cc1c[nH]c2ccccc12)C(=O)N[C@@H](CC(=O)O)C(N)=O
B2: CTX-1170 (peptide)
peptide: Ac-[Nle][dA]H[Phe(4-I)]R[dW]DR-NH2
SMILES: CCCC[C@H](NC(C)=O)C(=O)N[C@H](C)C(=O)N[C@@H](Cc1c[nH]cn1)C(=O)N[C@@H](Cc1ccc(I)cc1)C(=O)N[C@@H](CCCNC(=N)N)C(=O)N[C@H](Cc1c[nH]c2ccccc12)C(=O)N[C@@H](CC(=O)O)C(=O)N[C@@H](CCCNC(=N)N)C(N)=O
B3: CTX-1127 (peptide)
peptide: YVXAHFRWDRFG
modifications: Nle at 3; D-Ala at 4; D-Trp at 8; D-Phe at 11
B4: CTX-1167 (peptide)
peptide: Ac-[Nle][dA]H[Phe(4-I)]R[dW]DRFG-OH
SMILES: CCCC[C@H](NC(C)=O)C(=O)N[C@H](C)C(=O)N[C@@H](Cc1c[nH]cn1)C(=O)N[C@@H](Cc1ccc(I)cc1)C(=O)N[C@@H](CCCNC(=N)N)C(=O)N[C@H](Cc1c[nH]c2ccccc12)C(=O)N[C@@H](CC(=O)O)C(=O)N[C@@H](CCCNC(=N)N)C(=O)N[C@@H](Cc1ccccc1)C(=O)NCC(=O)O
B5: CTX-1141 (peptide)
peptide: H-[NMeY]V[Nle][dA]HFR[dW]D-NH2
SMILES: CCCC[C@H](NC(=O)[C@@H](NC(=O)[C@H](Cc1ccc(O)cc1)NC)C(C)C)C(=O)N[C@H](C)C(=O)N[C@@H](Cc1c[nH]cn1)C(=O)N[C@@H](Cc1ccccc1)C(=O)N[C@@H](CCCNC(=N)N)C(=O)N[C@H](Cc1c[nH]c2ccccc12)C(=O)N[C@@H](CC(=O)O)C(N)=O
B6: CTX-1158 (peptide)
peptide: Ac-[Nle][dA]HFR[dW]DRF-NH2
SMILES: CCCC[C@H](NC(C)=O)C(=O)N[C@H](C)C(=O)N[C@@H](Cc1c[nH]cn1)C(=O)N[C@@H](Cc1ccccc1)C(=O)N[C@@H](CCCNC(=N)N)C(=O)N[C@H](Cc1c[nH]c2ccccc12)C(=O)N[C@@H](CC(=O)O)C(=O)N[C@@H](CCCNC(=N)N)C(=O)N[C@@H](Cc1ccccc1)C(N)=O
B7: CTX-1105 (peptide)
peptide: H-YVEGHFR[dW]DRFG-NH2
SMILES: CC(C)[C@H](NC(=O)[C@@H](N)Cc1ccc(O)cc1)C(=O)N[C@@H](CCC(=O)O)C(=O)NCC(=O)N[C@@H](Cc1c[nH]cn1)C(=O)N[C@@H](Cc1ccccc1)C(=O)N[C@@H](CCCNC(=N)N)C(=O)N[C@H](Cc1c[nH]c2ccccc12)C(=O)N[C@@H](CC(=O)O)C(=O)N[C@@H](CCCNC(=N)N)C(=O)N[C@@H](Cc1ccccc1)C(=O)NCC(N)=O
B8: CTX-2121 (peptide)
peptide: YVXAHFRWDRFG
modifications: Nle at 3; D-Ala at 4; Phe(4-Cl) at 6; D-Trp at 8
B9: CTX-1145 (peptide)
peptide: Ac-[Nle][dA]HFR[dW]DR[dF]G-OH
SMILES: CCCC[C@H](NC(C)=O)C(=O)N[C@H](C)C(=O)N[C@@H](Cc1c[nH]cn1)C(=O)N[C@@H](Cc1ccccc1)C(=O)N[C@@H](CCCNC(=N)N)C(=O)N[C@H](Cc1c[nH]c2ccccc12)C(=O)N[C@@H](CC(=O)O)C(=O)N[C@@H](CCCNC(=N)N)C(=O)N[C@H](Cc1ccccc1)C(=O)NCC(=O)O
B10: CTX-1160 (peptide)
peptide: Ac-[Nle][dA]HFR[dW]DR[dF]K-OH
SMILES: CCCC[C@H](NC(C)=O)C(=O)N[C@H](C)C(=O)N[C@@H](Cc1c[nH]cn1)C(=O)N[C@@H](Cc1ccccc1)C(=O)N[C@@H](CCCNC(=N)N)C(=O)N[C@H](Cc1c[nH]c2ccccc12)C(=O)N[C@@H](CC(=O)O)C(=O)N[C@@H](CCCNC(=N)N)C(=O)N[C@H](Cc1ccccc1)C(=O)N[C@@H](CCCCN)C(=O)O
B11: CTX-2120 (peptide)
peptide: YVXAHFRWDRFG
modifications: Nle at 3; D-Ala at 4; Phe(4-Br) at 6; D-Trp at 8
B12: CTX-1169 (peptide)
peptide: Ac-[Nle][dA]H[Phe(4-I)]R[dW]DRF-NH2
SMILES: CCCC[C@H](NC(C)=O)C(=O)N[C@H](C)C(=O)N[C@@H](Cc1c[nH]cn1)C(=O)N[C@@H](Cc1ccc(I)cc1)C(=O)N[C@@H](CCCNC(=N)N)C(=O)N[C@H](Cc1c[nH]c2ccccc12)C(=O)N[C@@H](CC(=O)O)C(=O)N[C@@H](CCCNC(=N)N)C(=O)N[C@@H](Cc1ccccc1)C(N)=O
B13: CTX-1144 (peptide)
peptide: Ac-[Nle][dAbu]HFR[dW]DRFG-OH
SMILES: CCCC[C@H](NC(C)=O)C(=O)N[C@H](CC)C(=O)N[C@@H](Cc1c[nH]cn1)C(=O)N[C@@H](Cc1ccccc1)C(=O)N[C@@H](CCCNC(=N)N)C(=O)N[C@H](Cc1c[nH]c2ccccc12)C(=O)N[C@@H](CC(=O)O)C(=O)N[C@@H](CCCNC(=N)N)C(=O)N[C@@H](Cc1ccccc1)C(=O)NCC(=O)O
B14: CTX-1143 (peptide)
peptide: Ac-[Nle][Aib]HFR[dW]DRFG-OH
SMILES: CCCC[C@H](NC(C)=O)C(=O)NC(C)(C)C(=O)N[C@@H](Cc1c[nH]cn1)C(=O)N[C@@H](Cc1ccccc1)C(=O)N[C@@H](CCCNC(=N)N)C(=O)N[C@H](Cc1c[nH]c2ccccc12)C(=O)N[C@@H](CC(=O)O)C(=O)N[C@@H](CCCNC(=N)N)C(=O)N[C@@H](Cc1ccccc1)C(=O)NCC(=O)O
B15: CTX-2122 (peptide)
peptide: YVXAHFRWDRFG
modifications: Nle at 3; D-Ala at 4; Phe(4-I) at 6; D-Trp at 8
B16: CTX-1126 (peptide)
peptide: YVXAHFRWDRFG
modifications: Nle at 3; D-Ala at 4; D-Trp at 8; D-Arg at 10
B17: CTX-1103 (peptide)
peptide: YVXAHFRWDRFG
modifications: Nle at 3; D-Ala at 4; D-Trp at 8
B18: CTX-1159 (peptide)
peptide: Ac-[Nle][dA]HFR[dW]DR[dF]-NH2
SMILES: CCCC[C@H](NC(C)=O)C(=O)N[C@H](C)C(=O)N[C@@H](Cc1c[nH]cn1)C(=O)N[C@@H](Cc1ccccc1)C(=O)N[C@@H](CCCNC(=N)N)C(=O)N[C@H](Cc1c[nH]c2ccccc12)C(=O)N[C@@H](CC(=O)O)C(=O)N[C@@H](CCCNC(=N)N)C(=O)N[C@H](Cc1ccccc1)C(N)=O

Molecular target: human MC3R (human, UniProt P41968 1-323)
Sequence (P41968 whole entry): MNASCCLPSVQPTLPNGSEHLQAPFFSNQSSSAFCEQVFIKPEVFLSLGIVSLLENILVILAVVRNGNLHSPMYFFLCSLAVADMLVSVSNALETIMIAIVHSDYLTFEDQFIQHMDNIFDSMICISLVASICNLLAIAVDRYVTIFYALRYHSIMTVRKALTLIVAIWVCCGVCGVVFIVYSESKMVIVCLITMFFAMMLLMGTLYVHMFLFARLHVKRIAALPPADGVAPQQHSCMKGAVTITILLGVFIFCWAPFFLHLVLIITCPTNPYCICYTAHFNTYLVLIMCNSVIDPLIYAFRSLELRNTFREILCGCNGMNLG
Test: cell-based or functional assay

Row | MC3R cAMP (EC50) [nM] | MC3R selectivity (relative to MC4R) | Binder
1 | 12 | 79 | B1
2 | 26 | 67 | B2
3 | 2.5 | 95 | B3
4 | 4.8 | 937 | B4
5 | 2.2 | 55 | B5
6 | 2.6 | 535 | B6
7 | 20 | 500 | B7
8 | 2.5 | 93 | B8
9 | 52.9 | 535 | B9
10 | 9.8 | 1260 | B10
11 | 2.3 | 173 | B11
12 | 4.8 | 200 | B12
13 | 6.6 | 2630 | B13
14 | 13.4 | 3540 | B14
15 | 3.2 | 324 | B15
16 | 3 | 43 | B16
17 | 4.3 | 229 | B17
18 | 14.3 | 213 | B18
